Assay results as given in US20260265385A1, “CD122 BINDING AGENTS AND METHOD OF USING SAME” (AnaptysBio, Inc., priority 2022, published 2026).

How the values were obtained:
[1] = target: human IL-2Rβ (CD122), full-length, on cells (human) (UniProt P14784); assay: flow cytometry competition: antibody titrated against recombinant IL-2 (5 nM) binding to HEK293 cells expressing human IL-2Rβ and IL-2Rγ
[2] = target: human IL-2Rβ (CD122), full-length, on cells (human) (UniProt P14784); assay: flow cytometry competition: antibody titrated against recombinant IL-15 (2 nM) binding to HEK293 cells expressing human IL-2Rβ and IL-2Rγ

Sequence of human IL-2Rβ (CD122), full-length, on cells (human) (P14784 27-551): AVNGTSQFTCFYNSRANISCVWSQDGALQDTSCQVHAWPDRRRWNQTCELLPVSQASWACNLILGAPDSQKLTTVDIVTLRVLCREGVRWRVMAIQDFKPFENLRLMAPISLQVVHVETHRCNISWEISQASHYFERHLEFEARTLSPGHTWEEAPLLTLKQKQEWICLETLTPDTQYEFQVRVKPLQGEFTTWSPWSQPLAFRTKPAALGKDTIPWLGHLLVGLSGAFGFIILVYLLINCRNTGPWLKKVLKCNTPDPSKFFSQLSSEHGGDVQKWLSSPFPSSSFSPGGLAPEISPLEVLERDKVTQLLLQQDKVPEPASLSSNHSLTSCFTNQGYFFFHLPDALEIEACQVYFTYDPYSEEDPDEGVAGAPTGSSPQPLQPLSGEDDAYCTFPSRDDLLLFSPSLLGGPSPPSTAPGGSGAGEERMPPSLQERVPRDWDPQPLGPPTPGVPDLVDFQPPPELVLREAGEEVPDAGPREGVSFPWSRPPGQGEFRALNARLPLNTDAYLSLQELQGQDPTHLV

IC50 (read off the curve) [1]: 1000 pM | IC50 (read off the curve) [2]: 900 pM
B1: APE14773.01 (anti-CD122 control ref ABC2) (antibody, from another filing, V domains shown)
VH: EVKLVESGGGLVQPGGSLRLSCATSGFTFSDFYMEWVRQPPGKRLEWIAASRNKANDYTTEYSASVKGRFIVSRDTSQSILYLQMNALRAEDTAIYYCARSYYRYDGMDYWGQGTSVTVSS
VL: QVVLTQSPVIMSASPGEKVTMTCSAISSVSYMYWYQQKPGSSPRLLIYDTSNLVSGVPVRFSGSGSGTSYSLTISRMEAEDAATYYCQQWNTYPYTFGGGTKLEIK
